Experimental data reported in the supplement of paper PMC5998384.

Assays:
HeLa Kyoto [1] = test: solubility change mitosis vs G1/S (difference of NP-40 vs SDS log2 ratios) (log2 ratio difference); higher = more soluble in mitosis
HeLa Kyoto [2] = test: solubility in G1/S (NP-40 vs SDS abundance) (log2 ratio); higher = more soluble; conditions: cell cycle stage: G1/S
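For solubility change mitosis vs G1/S (difference of NP-40 vs SDS log2 ratios) in this document: synchronized HeLa Kyoto cells (double thymidine block for G1/S, nocodazole release for mitosis), protein amounts in NP-40 versus SDS lysates quantified by mass spectrometry, three biological replicates.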
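For solubility in G1/S (NP-40 vs SDS abundance) in this document: HeLa Kyoto cells arrested at G1/S by double thymidine block, proteins quantified by TMT10plex mass spectrometry in mild NP-40 versus SDS extracts, three biological replicates.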

Sequence: MEEFDLVKTLHKTSSSVGSDENSLHSLGLNLNTDRSSPHLSTNGVSSFSGKTRPSVIQGTVEVLTSLMQELQNSGKTDSELWKNCETRWLQLFNLVEKQCQEQIVAQQEQFHNQIQHIQEEIKNLVKLQTSSASLASCEGNSSNKQVSSESQMGFFSLSSERNESVIHYPESTEPEIQQEMSTSQPDCNVDSCSVSSGYGTFCISELNLYKSKDPKEFMEHIDVPKGQYVAPAVPAESLVDGVKNENFYIQTPEECHVSLKEDVSISPGEFEHNFLGENKVSEVYSGKTNSNAITSWAQKLKQNQPKRAHVEDGGSRSKQGNEQSKKTPIEKSDFAAATHPRAFYLSKPDETPNAWMSDSGTGLTYWKLEEKDMHHSLPETLEKTFISLSSTDVSPNQSNTSNEMKLPSLKDIYYKKQRENKQLPERNLTSASNPNHPPEVLTLDPTLHMKPKQQISGIQPHGLPNALDDRISFSPDSVLEPSMSSPSDIDSFSQASNVTSQLPGFPKYPSHTKASPVDSWKNQTFQNESRTSSTFPSVYTITSNDISVNTVDEENTVMVASASVSQSQLPGTANSVPECISLTSLEDPVILSKIRQNLKEKHARHIADLRAYYESEINSLKQKLEAKEISGVEDWKITNQILVDRCGQLDSALHEATSRVRTLENKNNLLEIEVNDLRERFSAASSASKILQERIEEMRTSSKEKDNTIIRLKSRLQDLEEAFENAYKLSDDKEAQLKQENKMFQDLLGEYESLGKEHRRVKDALNTTENKLLDAYTQISDLKRMISKLEAQVKQVEHENMLSLRHNSRIHVRPSRANTLATSDVSRRKWLIPGAEYSIFTGQPLDTQDSNVDNQLEETCSLGHRSPLEKDSSPGSSSTSLLIKKQRETSDTPIMRALKELDEGKIFKNWGTQTEKEDTSNINPRQTETSVNASRSPEKCAQQRQKRLNSASQRSSSLPPSNRKSSTPTKREIMLTPVTVAYSPKRSPKENLSPGFSHLLSKNESSPIRFDILLDDLDTVPVSTLQRTNPRKQLQFLPLDDSEEKTYSEKATDNHVNHSSCPEPVPNGVKKVSVRTAWEKNKSVSYEQCKPVSVTPQGNDFEYTAKIRTLAETERFFDELTKEKDQIEAALSRMPSPGGRITLQTRLNQEALEDRLERINRELGSVRMTLKKFHVLRTSANL [MPHOSPH9]
- solubility change mitosis (log2) (HeLa Kyoto [1]): 0.149
- solubility in G1/S (log2) (HeLa Kyoto [2]): -0.0212

Sequence: MEEKPSGPIPDMLATAEPSSSETDKEVLSPAVPAAAPSSSMSEEPGPEQAATPPVWERGGAGGMQQGSSPAPDSCQPGPGPSPGLTSIVSGTSEDLRPPRRRPPPGKQIPCSSPGCCLSFPSVRDLAQHLRTHCPPTQSLEGKLFRCSALSCTETFPSMQELVAHSKLHYKPNRYFKCENCLLRFRTHRSLFKHLHVCAEHAQSPAPPPPPALDREPPAPERPPEVDPASAPGLPFPLLEPFTTPAPAPTGPFLPYLNPAPFGLSPPRLRPFLAAAPGPPASSAAVWKKSQGAGSSPRRPQGGSDAPSGACR [ZNF414]
- solubility change mitosis (log2) (HeLa Kyoto [1]): -0.445
- solubility in G1/S (log2) (HeLa Kyoto [2]): -0.217

Sequence: MEEKYGGDVLAGPGGGGGLGPVDVPSARLTKYIVLLCFTKFLKAVGLFESYDLLKAVHIVQFIFILKLGTAFFMVLFQKPFSSGKTITKHQWIKIFKHAVAGCIISLLWFFGLTLCGPLRTLLLFEHSDIVVISLLSVLFTSSGGGPAKTRGAAFFIIAVICLLLFDNDDLMAKMAEHPEGHHDSALTHMLYTAIAFLGVADHKGGVLLLVLALCCKVGFHTASRKLSVDVGGAKRLQALSHLVSVLLLCPWVIVLSVTTESKVESWFSLIMPFATVIFFVMILDFYVDSICSVKMEVSKCARYGSFPIFISALLFGNFWTHPITDQLRAMNKAAHQESTEHVLSGGVVVSAIFFILSANILSSPSKRGQKGTLIGYSPEGTPLYNFMGDAFQHSSQSIPRFIKESLKQILEESDSRQIFYFLCLNLLFTFVELFYGVLTNSLGLISDGFHMLFDCSALVMGLFAALMSRWKATRIFSYGYGRIEILSGFINGLFLIVIAFFVFMESVARLIDPPELDTHMLTPVSVGGLIVNLIGICAFSHAHSHAHGASQGSCHSSDHSHSHHMHGHSDHGHGHSHGSAGGGMNANMRGVFLHVLADTLGSIGVIVSTVLIEQFGWFIADPLCSLFIAILIFLSVVPLIKDACQVLLLRLPPEYEKELHIALEKIQKIEGLISYRDPHFWRHSASIVAGTIHIQVTSDVLEQRIVQQVTGILKDAGVNNLTIQVEKEAYFQHMSGLSTGFHDVLAMTKQMESMKYCKDGTYIM [SLC30A5]
- solubility change mitosis (log2) (HeLa Kyoto [1]): -0.241
- solubility in G1/S (log2) (HeLa Kyoto [2]): -0.143

Sequence: MEELSSVGEQVFAAECILSKRLRKGKLEYLVKWRGWSSKHNSWEPEENILDPRLLLAFQKKEHEKEVQNRKRGKRPRGRPRKLTAMSSCSRRSKLKEPDAPSKSKSSSSSSSSTSSSSSSDEEDDSDLDAKRGPRGRETHPVPQKKAQILVAKPELKDPIRKKRGRKPLPPEQKATRRPVSLAKVLKTARKDLGAPASKLPPPLSAPVAGLAALKAHAKEACGGPSAMATPENLASLMKGMASSPGRGGISWQSSIVHYMNRMTQSQAQAASRLALKAQATNKCGLGLDLKVRTQKGELGMSPPGSKIPKAPSGGAVEQKVGNTGGPPHTHGASRVPAGCPGPQPAPTQELSLQVLDLQSVKNGMPGVGLLARHATATKGVPATNPAPGKGTGSGLIGASGATMPTDTSKSEKLASRAVAPPTPASKRDCVKGSATPSGQESRTAPGEARKAATLPEMSAGEESSSSDSDPDSASPPSTGQNPSVSVQTSQDWKPTRSLIEHVFVTDVTANLITVTVKESPTSVGFFNLRHY [CBX2]
- solubility change mitosis (log2) (HeLa Kyoto [1]): 0.268
- solubility in G1/S (log2) (HeLa Kyoto [2]): -0.63

Sequence: MEEPEEPADSGQSLVPVYIYSPEYVSMCDSLAKIPKRASMVHSLIEAYALHKQMRIVKPKVASMEEMATFHTDAYLQHLQKVSQEGDDDHPDSIEYGLGYDCPATEGIFDYAAAIGGATITAAQCLIDGMCKVAINWSGGWHHAKKDEASGFCYLNDAVLGILRLRRKFERILYVDLDLHHGDGVEDAFSFTSKVMTVSLHKFSPGFFPGTGDVSDVGLGKGRYYSVNVPIQDGIQDEKYYQICESVLKEVYQAFNPKAVVLQLGADTIAGDPMCSFNMTPVGIGKCLKYILQWQLATLILGGGGYNLANTARCWTYLTGVILGKTLSSEIPDHEFFTAYGPDYVLEITPSCRPDRNEPHRIQQILNYIKGNLKHVV [HDAC8]
- solubility change mitosis (log2) (HeLa Kyoto [1]): -0.213
- solubility in G1/S (log2) (HeLa Kyoto [2]): 0.168

Sequence: MEFSIKQSPLSVQSVVKCIKMKQAPEILGSANGKTPSCEVNRECSVFLSKAQLSSSLQEGVMQKFNGHDALPFIPADKLKDLTSRVFNGEPGAHDAKLRFESQEMKGIGTPPNTTPIKNGSPEIKLKITKTYMNGKPLFESSICGDSAADVSQSEENGQKPENKARRNRKRSIKYDSLLEQGLVEAALVSKISSPSDKKIPAKKESCPNTGRDKDHLLKYNVGDLVWSKVSGYPWWPCMVSADPLLHSYTKLKGQKKSARQYHVQFFGDAPERAWIFEKSLVAFEGEGQFEKLCQESAKQAPTKAEKIKLLKPISGKLRAQWEMGIVQAEEAASMSVEERKAKFTFLYVGDQLHLNPQVAKEAGIAAESLGEMAESSGVSEEAAENPKSVREECIPMKRRRRAKLCSSAETLESHPDIGKSTPQKTAEADPRRGVGSPPGRKKTTVSMPRSRKGDAASQFLVFCQKHRDEVVAEHPDASGEEIEELLRSQWSLLSEKQRARYNTKFALVAPVQAEEDSGNVNGKKRNHTKRIQDPTEDAEAEDTPRKRLRTDKHSLRKRDTITDKTARTSSYKAMEAASSLKSQAATKNLSDACKPLKKRNRASTAASSALGFSKSSSPSASLTENEVSDSPGDEPSESPYESADETQTEVSVSSKKSERGVTAKKEYVCQLCEKPGSLLLCEGPCCGAFHLACLGLSRRPEGRFTCSECASGIHSCFVCKESKTDVKRCVVTQCGKFYHEACVKKYPLTVFESRGFRCPLHSCVSCHASNPSNPRPSKGKMMRCVRCPVAYHSGDACLAAGCSVIASNSIICTAHFTARKGKRHHAHVNVSWCFVCSKGGSLLCCESCPAAFHPDCLNIEMPDGSWFCNDCRAGKKLHFQDIIWVKLGNYRWWPAEVCHPKNVPPNIQKMKHEIGEFPVFFFGSKDYYWTHQARVFPYMEGDRGSRYQGVRGIGRVFKNALQEAEARFREIKLQREARETQESERKPPPYKHIKVNKPYGKVQIYTADISEIPKCNCKPTDENPCGFDSECLNRMLMFECHPQVCPAGEFCQNQCFTKRQYPETKIIKTDGKGWGLVAKRDIRKGEFVNEYVGELIDEEECMARIKHAHENDITHFYMLTIDKDRIIDAGPKGNYSRFMNHSCQPNCETLKWTVNGDTRVGLFAVCDIPAGTELTFNYNLDCLGNEKTVCRCGASNCSGFLGDRPKTSTTLSSEEKGKKTKKKTRRRRAKGEGKRQSEDECFRCGDGGQLVLCDRKFCTKAYHLSCLGLGKRPFGKWECPWHHCDVCGKPSTSFCHLCPNSFCKEHQDGTAFSCTPDGRSYCCEHDLGAASVRSTKTEKPPPEPGKPKGKRRRRRGWRRVTEGK [WHSC1]
- solubility change mitosis (log2) (HeLa Kyoto [1]): 0.535
- solubility in G1/S (log2) (HeLa Kyoto [2]): -1.29

Sequence: MEGLGRSCLWLRRELSPPRPRLLLLDCRSRELYESARIGGALSVALPALLLRRLRRGSLSVRALLPGPPLQPPPPAPVLLYDQGGGRRRRGEAEAEAEEWEAESVLGTLLQKLREEGYLAYYLQGGFSRFQAECPHLCETSLAGRAGSSMAPVPGPVPVVGLGSLCLGSDCSDAESEADRDSMSCGLDSEGATPPPVGLRASFPVQILPNLYLGSARDSANLESLAKLGIRYILNVTPNLPNFFEKNGDFHYKQIPISDHWSQNLSRFFPEAIEFIDEALSQNCGVLVHCLAGVSRSVTVTVAYLMQKLHLSLNDAYDLVKRKKSNISPNFNFMGQLLDFERSLRLEERHSQEQGSGGQASAASNPPSFFTTPTSDGAFELAPT [DUSP9]
- solubility change mitosis (log2) (HeLa Kyoto [1]): -0.104
- solubility in G1/S (log2) (HeLa Kyoto [2]): 0.279

Sequence: MEGRSAAAETFVWVNNASAHSQSVAKAKYEFLFGRSEGKAPDTSDHGGSTLLPPNVTNEFPEYGTMEEGGEGLRASLEFDGEALPCHPQEQQGVQPLTGCHSGLDSVTEGPKDVREAPSQSHLKEQSLQPIDSLISALKATEARIISGTLQATKVLDQDAVSSFSVQQVEKELDTASRKTQRVNKTLPAGQKNLPEIPLSAEVTTEESFYLSIQKDLTALLTGDTQAEISQIMNNGRKGAVCVQEPSCPLASLGSSAVTCHSAGSVGFLKEQRSALGREHPGGCDRSSSMGRPGRVKHVEFQGVEILWTGGDKRETQHPIDFETSLQRTASPDSKESSKVPRHLISSAGLCNSSSLTENVWDESWKAPSERPGTSSGTFSPVRLDESGEDEVFLQENKQHLEKTPKPERDRERISEQEEHVKGEDEDILGPGYTEDSTDVYSSQFETILDNTSLYYSAESLETLYSEPDSYFSFEMPLTPMIQQRIKEGGQFLERTSGGGHQDILSVSADGGIVMGYSSGVTNGLNDASDSIYTKGTPEIAFWGSNAGVKTTRLEAHSEMGSTEILEKETPENLSNGTSSNVEAAKRLAKRLYQLDRFKRSDVAKHLGKNNEFSKLVAEEYLKFFDFTGMTLDQSLRYFFKAFSLVGETQERERVLIHFSNRYFYCNPDTIASQDGVHCLTCAIMLLNTDLHGHVNIGKKMTCQEFIANLQGVNEGVDFSKDLLKALYNSIKNEKLEWAVDDEEKKKSPSESTEEKANGTHPKTISRIGSTTNPFLDIPHDPNAAVYKSGFLARKIHADMDGKKTPRGKRGWKTFYAVLKGTVLYLQKDEYKPEKALSEEDLKNAVSVHHALASKATDYEKKPNVFKLKTADWRVLLFQTQSPEEMQGWINKINCVAAVFSAPPFPAAIGSQKKFSRPLLPATTTKLSQEEQLKSHESKLKQITTELAEHRSYPPDKKVKAKDVDEYKLKDHYLEFEKTRYEMYVSILKEGGKELLSNDESEAAGLKKSHSSPSLNPDTSPITAKVKRNVSERKDHRPETPSIKQKVT [PSD3]
- solubility change mitosis (log2) (HeLa Kyoto [1]): -0.00479
- solubility in G1/S (log2) (HeLa Kyoto [2]): -0.107
